The values below come from article PMC13276077.

Assay in all cases: EMSA
The target in data set [1] is HisMBP-MeCP2 162-309 (Homo sapiens) (UniProt P51608). Conditions: apparent, competitor DNA, EMSA: 20 mM HEPES pH 7.5, 75 mM NaCl, 125 mM KCl, 50 uM EDTA, 2.5 mM beta-mercaptoethanol, 5% glycerol, BSA, 1.58 uM 47 bp competitor DNA (absent in free DNA …). On the technique in general: In EMSA bound probe runs differently from free probe, usually more slowly.
The target in data set [2] is MeCP2 full-length, e2 isoform (Homo sapiens) (UniProt P51608). To be noted: EMSA: 20 mM HEPES pH 7.5, 75 mM NaCl, 125 mM KCl, 50 uM EDTA, 2.5 mM beta-mercaptoethanol, 5% glycerol, BSA, 1.58 uM 47 bp competitor DNA (absent in free DNA …).
Another data set deals with MeCP2 MBD (Homo sapiens) (UniProt P51608). Conditions: EMSA: 20 mM HEPES pH 7.5, 75 mM NaCl, 125 mM KCl, 50 uM EDTA, 2.5 mM beta-mercaptoethanol, 5% glycerol, BSA, 1.58 uM 47 bp competitor DNA (absent in free DNA …).
Data set [3] has as its target MeCP2 R133G R133G (Homo sapiens) (UniProt P51608). Conditions: apparent, competitor DNA, EMSA: 20 mM HEPES pH 7.5, 75 mM NaCl, 125 mM KCl, 50 uM EDTA, 2.5 mM beta-mercaptoethanol, 5% glycerol, BSA, 1.58 uM 47 bp competitor DNA (absent in free DNA …).
Data set [4] deals with MeCP2 MBD;histone octamer H2B T115C;H3.1 C96S;C110A (Homo sapiens;) (UniProt P51608+P0C0S8+P62807+P68431+P62805). To be noted: 20 mM HEPES pH 7.5, 75 mM NaCl, 125 mM KCl, 50 uM EDTA, 2.5 mM beta-mercaptoethanol, 5% glycerol, BSA, 1.58 uM 47 bp competitor DNA (nucleosome assays), absent …, low values mean tight binding.
Data set [5] deals with MeCP2 AT-DIRmut;histone octamer R188G;R190G;K254N;K256N;R268Q|H2B T115C;H3.1 C96S;C110A (Homo sapiens;) (UniProt P51608+P0C0S8+P62807+P68431+P62805). To be noted: 20 mM HEPES pH 7.5, 75 mM NaCl, 125 mM KCl, 50 uM EDTA, 2.5 mM beta-mercaptoethanol, 5% glycerol, BSA, 1.58 uM 47 bp competitor DNA (nucleosome assays), absent …, low values mean tight binding.
The target in data set [6] is MeCP2 full-length, e2 isoform;histone octamer H2B T115C;H3.1 C96S;C110A (Homo sapiens;) (UniProt P51608+P0C0S8+P62807+P68431+P62805). Conditions: 20 mM HEPES pH 7.5, 75 mM NaCl, 125 mM KCl, 50 uM EDTA, 2.5 mM beta-mercaptoethanol, 5% glycerol, BSA, 1.58 uM 47 bp competitor DNA (nucleosome assays), absent …, low values mean tight binding.
The target of data set [7] is MeCP2 AT-DIRmut R188G;R190G;K254N;K256N;R268Q (Homo sapiens) (UniProt P51608). To be noted: apparent, competitor DNA, EMSA: 20 mM HEPES pH 7.5, 75 mM NaCl, 125 mM KCl, 50 uM EDTA, 2.5 mM beta-mercaptoethanol, 5% glycerol, BSA, 1.58 uM 47 bp competitor DNA (absent in free DNA …).
For data set [8], the target named is MeCP2 full-length, e2 isoform;histone H1.0;histone octamer H2B T115C;H3.1 C96S;C110A (Homo sapiens;Homo sapiens;) (UniProt P51608+P07305+P0C0S8+P62807+P68431+P62805). Conditions: 20 mM HEPES pH 7.5, 75 mM NaCl, 125 mM KCl, 50 uM EDTA, 2.5 mM beta-mercaptoethanol, 5% glycerol, BSA, 1.58 uM 47 bp competitor DNA (nucleosome assays), absent …, low values mean tight binding.

[9] abbreviates: meCpG at +83, -61, -80 bp from dyad.

Turning to “ATGGAACACATTGCACAGGATGTATATATCTGACACGTGCCTGGAGACTAGGGAGTAATCCCCTTGGCGGTTAAAACGCGGGGGACAGCGCGTACGTGCGTTTAAGCGGTGCTAGAGCTGTCTACGACCAATTGAGCGGCCTCGGCACCGGGATTCTCCAGGGCGGCCGCGTATT (double strand) [15-N601-15 nucleosome unmethylated]”, the Kd was found to be 240 nM in data set [1], 220 nM in [2], 1000 nM with MeCP2 MBD (Homo sapiens) and 596 nM in data set [3].

Regarding “GCTTCACCTCGTGACCCAAGCGACACCGGCACTGGGACAGGATGTATATATGTGACACGTGCCTGGAGACTAGGGAGTAATCCCCTTGGCGGTTAAAACGCGGGGGACAGCGCGTACGTGCGTTTAAGCGGTGCTAGAGCTGTCTACGACCAATTGAGCGGCCTCGGCACCGGGATTCTCCAGGGGATCCGGCATCATGGTCTAGAGCG (double strand) [37-N601-27 nucleosome -1 meCpG]”, the Kd in [4] (meCpG at -1 (GACAGCGCGTAC)) came out at 234 nM; in [5] (meCpG at -1 (GACAGCGCGTAC)) it was 119 nM; in data set [6] (meCpG at -1 (GACAGCGCGTAC)), 72.1 nM; in data set [7] (meCpG at -1 (GACAGCGCGTAC)), 119 nM; in data set [2] (apparent, H1.0 prebound (chromatosome), competitor DNA, meCpG at -1 (GACAGCGCGTAC)) it was 80.4 nM; in data set [2] (meCpG at -1 (GACAGCGCGTAC)) it was 72.1 nM. The Kd in data set [8] (meCpG at -1 (GACAGCGCGTAC)) worked out at 80.4 nM; with MeCP2 MBD (Homo sapiens) (meCpG at -1 (GACAGCGCGTAC)), 234 nM.

With “GAGCCACAAAATCACCGACGCTCACGGGTGCCCAGTTCGCGCGCCCACCTACCGTGTGAAGTCGTCACTCGGGCTTCTAAGTACGCTTAGCGCACGGTAGAGCGCAATCCAAGGCTAACCACCGTGCATCGATGTTGAAAGAGGCCCTCCGTCCTTATTACTTCAAGTCCCTGGGGTACCCGTTTCACTGCCA (double strand) [16-N603-30 nucleosome unmethylated]”, the Kd was 94.6 nM in data set [1], 94.9 nM in [2], 716 nM with MeCP2 MBD (Homo sapiens) and 188 nM in [3].

For “GAGCCACAAAATCACCGACGCTCACGGGTGCCCAGTTCGCGCGCCCACCTACCGTGTGAAGTCGTCACTCGGGCTTCTAAGTACGCTTAGCGCACGGTAGAGCGCAATCCAAGGCTAACCACCGTGCATCGATGTTGAAAGAGGCCCTCCGTCCTTATTACTTCAAGTCCCTGGGGTACCCGTTTCACTGCCA (double strand) [16-N603-30 nucleosome 91 meCpA]”, the Kd is 103 nM in data set [1] (asymmetric meCpA at 91), 57.1 nM in [2] (asymmetric meCpA at 91), 85.7 nM with MeCP2 MBD (Homo sapiens) (asymmetric meCpA at 91) and 162 nM in [3] (asymmetric meCpA at 91).

As to “GCTTCACCTCGTGACCCAAGCGACACCGGCACTGGGACAGGATGTATATATGTGACACGTGCCTGGAGACTAGGGAGTAATCCCCTTGGCGGTTAAAACGCGGGGGACAGCGCGTACGTGCGTTTAAGCGGTGCTAGAGCTGTCTACGACCAATTGAGCGGCCTCGGCACCGGGATTCTCCAGGGGATCCGGCATCATGGTCTAGAGCG (double strand) [37-N601-27 nucleosome unmethylated]”, the Kd in data set [4] stood at 279 nM; in data set [5], 167 nM; in data set [6], 137 nM; in data set [2], 137 nM; in data set [2] (apparent, H1.0 prebound (chromatosome), competitor DNA), 164 nM; in data set [8] it was 164 nM. The same sequence displayed a Kd with MeCP2 MBD (Homo sapiens) of 279 nM.

Consider “GCTTCACCTCGTGACCCAAGCGACACCGGCACTGGGACAGGATGTATATATGTGACACGTGCCTGGAGACTAGGGAGTAATCCCCTTGGCGGTTAAAACGCGGGGGACAGCGCGTACGTGCGTTTAAGCGGTGCTAGAGCTGTCTACGACCAATTGAGCGGCCTCGGCACCGGGATTCTCCAGGGGATCCGGCATCATGGTCTAGAGCG (double strand) [37-N601-27 nucleosome 3x meCpG]”, for which the Kd turned out to be 67.9 nM in data set [4] (setting [9]); 42.5 nM in data set [5] (setting [9]); 37.5 nM in data set [6] (setting [9]); 42.5 nM in data set [7] (setting [9]); 46 nM in data set [2] (apparent, H1.0 prebound (chromatosome), competitor DNA, meCpG at +83, -61, -80 bp from dyad); 37.5 nM in data set [2] (setting [9]). Moreover, the Kd in data set [8] (setting [9]) came to 46 nM; in the data set with MeCP2 MBD (Homo sapiens) (setting [9]), 67.9 nM.
